Reference: paper PMC11574045, “A cofactor-induced repressive type of transcription factor condensation can be induced by synthetic peptides to suppress tumorigenesis” (The EMBO Journal, 2024)

Test system: HEK293FT cells transfected with TF library
Assay: Screening of TF condensates based on fluorescent puncta
Assay type: cell-based
Settings: Figure 1B numerical data; TF library screen, one value per transcriptional factor
In short: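 HEK293FT, PEI transfection of TF library, 60 h; ±glucose 12 h; 4% PFA fix, 0.05% Triton X-100 permeabilization, 5% BSA block; anti-Flag/anti-GAL4 overnight at 4 °C, Alexa 488 secondary 1 h; high-content imaging, 50 fields/well.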

Row | Molecule | Z score of condensed fraction
1 | RBBP8 (protein, UniProt Q99708 1-897, looked up) DNA endonuclease RBBP8: MNISGSSCGSPNSADTSSDFKDLWTKLKECHDREVQGLQVKVTKLKQERILDAQRLEEFFTKNQQLREQQKVLHETIKVLEDRLRAGLCDRCAVTEEHMRKKQQEFENIRQQNLKLITELMNERNTLQEENKKLSEQLQQKIENDQQHQAAELECEEDVIPDSPITAFSFSGVNRLRRKENPHVRYIEQTHTKLEHSVCANEMRKVSKSSTHPQHNPNENEILVADTYDQSQSPMAKAHGTSSYTPDKSSFNLATVVAETLGLGVQEESETQGPMSPLGDELYHCLEGNHKKQPFEESTRNTEDSLRFSDSTSKTPPQEELPTRVSSPVFGATSSIKSGLDLNTSLSPSLLQPGKKKHLKTLPFSNTCISRLEKTRSKSEDSALFTHHSLGSEVNKIIIQSSNKQILINKNISESLGEQNRTEYGKDSNTDKHLEPLKSLGGRTSKRKKTEEESEHEVSCPQASFDKENAFPFPMDNQFSMNGDCVMDKPLDLSDRFSAIQRQEKSQGSETSKNKFRQVTLYEALKTIPKGFSSSRKASDGNCTLPKDSPGEPCSQECIILQPLNKCSPDNKPSLQIKEENAVFKIPLRPRESLETENVLDDIKSAGSHEPIKIQTRSDHGGCELASVLQLNPCRTGKIKSLQNNQDVSFENIQWSIDPGADLSQYKMDVTVIDTKDGSQSKLGGETVDMDCTLVSETVLLKMKKQEQKGEKSSNEERKMNDSLEDMFDRTTHEEYESCLADSFSQAADEEEELSTATKKLHTHGDKQDKVKQKAFVEPYFKGDERETSLQNFPHIEVVRKKEERRKLLGHTCKECEIYYADMPAEEREKKLASCSRHRFRYIPPNTPENFWEVGFPSTQTCMERGYIKEDLDPCPRPKRRQPYNAIFSPKGKEQKT | 0.03488
2 | RARB (protein, UniProt P10826 1-455, looked up) Retinoic acid receptor beta: MTTSGHACPVPAVNGHMTHYPATPYPLLFPPVIGGLSLPPLHGLHGHPPPSGCSTPSPATIETQSTSSEELVPSPPSPLPPPRVYKPCFVCQDKSSGYHYGVSACEGCKGFFRRSIQKNMIYTCHRDKNCVINKVTRNRCQYCRLQKCFEVGMSKESVRNDRNKKKKETSKQECTESYEMTAELDDLTEKIRKAHQETFPSLCQLGKYTTNSSADHRVRLDLGLWDKFSELATKCIIKIVEFAKRLPGFTGLTIADQITLLKAACLDILILRICTRYTPEQDTMTFSDGLTLNRTQMHNAGFGPLTDLVFTFANQLLPLEMDDTETGLLSAICLICGDRQDLEEPTKVDKLQEPLLEALKIYIRKRRPSKPHMFPKILMKITDLRSISAKGAERVITLKMEIPGSMPPLIQEMLENSEGHEPLTPSSSGNTAEHSPSISPSSVENSGVSQSPLVQ | -0.7014
3 | BANP (protein, UniProt Q8N9N5 1-519, looked up) Protein BANP: MMSEHDLADVVQIAVEDLSPDHPVVLENHVVTDEDEPALKRQRLEINCQDPSIKTICLRLDSIEAKLQALEATCKSLEEKLDLVTNKQHSPIQVPMVAGSPLGATQTCNKVRCVVPQTTVILNNDRQNAIVAKMEDPLSNRAPDSLENVISNAVPGRRQNTIVVKVPGQEDSHHEDGESGSEASDSVSSCGQAGSQSIGSNVTLITLNSEEDYPNGTWLGDENNPEMRVRCAIIPSDMLHISTNCRTAEKMALTLLDYLFHREVQAVSNLSGQGKHGKKQLDPLTIYGIRCHLFYKFGITESDWYRIKQSIDSKCRTAWRRKQRGQSLAVKSFSRRTPNSSSYCPSEPMMSTPPPASELPQPQPQPQALHYALANAQQVQIHQIGEDGQVQVGHLHIAQVPQGEQVQITQDSEGNLQIHHVGQDGQLLEATRIPCLLAPSVFKASSGQVLQGAQLIAVASSDPAAAGVDGSPLQGSDIQVQYVQLAPVSDHTAGAQTAEALQPTLQPEMQLEHGAIQIQ | 1.258
4 | PRMT2 (protein, UniProt P55345 1-433, looked up) Protein arginine …: MATSGDCPRSESQGEEPAECSEAGLLQEGVQPEEFVAIADYAATDETQLSFLRGEKILILRQTTADWWWGERAGCCGYIPANHVGKHVDEYDPEDTWQDEEYFGSYGTLKLHLEMLADQPRTTKYHSVILQNKESLTDKVILDVGCGTGIISLFCAHYARPRAVYAVEASEMAQHTGQLVLQNGFADIITVYQQKVEDVVLPEKVDVLVSEWMGTCLLFEFMIESILYARDAWLKEDGVIWPTMAALHLVPCSADKDYRSKVLFWDNAYEFNLSALKSLAVKEFFSKPKYNHILKPEDCLSEPCTILQLDMRTVQISDLETLRGELRFDIRKAGTLHGFTAWFSVHFQSLQEGQPPQVLSTGPFHPTTHWKQTLFMMDDPVPVHTGDVVTGSVVLQRNPVWRRHMSVALSWAVTSRQDPTSQKVGEKVFPIWR | 0.936
5 | PRDM16 (protein, UniProt Q9HAZ2 1-1276, looked up) Histone-lysine …: MRSKARARKLAKSDGDVVNNMYEPNRDLLASHSAEDEAEDSAMSPIPVGPPSPFPTSEDFTPKEGSPYEAPVYIPEDIPIPADFELRESSIPGAGLGVWAKRKMEAGERLGPCVVVPRAAAKETDFGWEQILTDVEVSPQEGCITKISEDLGSEKFCVDANQAGAGSWLKYIRVACSCDDQNLTMCQISEQIYYKVIKDIEPGEELLVHVKEGVYPLGTVPPGLDEEPTFRCDECDELFQSKLDLRRHKKYTCGSVGAALYEGLAEELKPEGLGGGSGQAHECKDCERMFPNKYSLEQHMVIHTEEREYKCDQCPKAFNWKSNLIRHQMSHDSGKRFECENCVKVFTDPSNLQRHIRSQHVGARAHACPDCGKTFATSSGLKQHKHIHSTVKPFICEVCHKSYTQFSNLCRHKRMHADCRTQIKCKDCGQMFSTTSSLNKHRRFCEGKNHYTPGGIFAPGLPLTPSPMMDKAKPSPSLNHASLGFNEYFPSRPHPGSLPFSTAPPTFPALTPGFPGIFPPSLYPRPPLLPPTSLLKSPLNHTQDAKLPSPLGNPALPLVSAVSNSSQGTTAAAGPEEKFESRLEDSCVEKLKTRSSDMSDGSDFEDVNTTTGTDLDTTTGTGSDLDSDVDSDPDKDKGKGKSAEGQPKFGGGLAPPGAPNSVAEVPVFYSQHSFFPPPDEQLLTATGAAGDSIKAIASIAEKYFGPGFMGMQEKKLGSLPYHSAFPFQFLPNFPHSLYPFTDRALAHNLLVKAEPKSPRDALKVGGPSAECPFDLTTKPKDVKPILPMPKGPSAPASGEEQPLDLSIGSRARASQNGGGREPRKNHVYGERKLGAGEGLPQVCPARMPQQPPLHYAKPSPFFMDPIYSRVEKRKVTDPVGALKEKYLRPSPLLFHPQMSAIETMTEKLESFAAMKADSGSSLQPLPHHPFNFRSPPPTLSDPILRKGKERYTCRYCGKIFPRSANLTRHLRTHTGEQPYRCKYCDRSFSISSNLQRHVRNIHNKEKPFKCHLCNRCFGQQTNLDRHLKKHEHENAPVSQHPGVLTNHLGTSASSPTSESDNHALLDEKEDSYFSEIRNFIANSEMNQASTRTEKRADMQIVDGSAQCPGLASEKQEDVEEEDDDDLEEDDEDSLAGKSQDDTVSPAPEPQAAYEDEEDEEPAASLAVGFDHTRRCAEDHEGGLLALEPMPTFGKGLDLRRAAEEAFEVKDVLNSTLDSEALKHTLCRQAKNQAYAMMLSLSEDTPLHTPSQGSLDAWLKVTGATSESGAFHPINHL | -0.4468
6 | BARHL2 (protein, UniProt Q9NY43 1-387, looked up) BarH-like 2 homeobox protein: MTMEGASGSSFGIDTILSSASSGSPGMMNGDFRPLGEARTADFRSQATPSPCSEIDTVGTAPSSPISVTMEPPEPHLVADATQHHHHLHHSQQPPPPAAAPTQSLQPLPQQQQPLPPQQPPPPPPQQLGSAASAPRTSTSSFLIKDILGDSKPLAACAPYSTSVSSPHHTPKQESNAVHESFRPKLEQEDSKTKLDKREDSQSDIKCHGTKEEGDREITSSRESPPVRAKKPRKARTAFSDHQLNQLERSFERQKYLSVQDRMDLAAALNLTDTQVKTWYQNRRTKWKRQTAVGLELLAEAGNYSALQRMFPSPYFYHPSLLGSMDSTTAAAAAAAMYSSMYRTPPAPHPQLQRPLVPRVLIHGLGPGGQPALNPLSSPIPGTPHPR | 1.061
7 | PRDM8 (protein, UniProt Q9NQV8 1-689, looked up) PR domain zinc finger protein …: MEDTGIQRGIWDGDAKAVQQCLTDIFTSVYTTCDIPENAIFGPCVLSHTSLYDSIAFIALKSTDKRTVPYIFRVDTSAANGSSEGLMWLRLVQSARDKEEQNLEAYIKNGQLFYRSLRRIAKDEELLVWYGKELTELLLLCPSRSHNKMNGSSPYTCLECSQRFQFEFPYVAHLRFRCPKRLHSADISPQDEQGGGVGTKDHGGGGGGGKDQQQQQQEAPLGPGPKFCKAGPLHHYPSPSPESSNPSAAAGGSSAKPSTDFHNLARELENSRGGSSCSPAQSLSSGSGSGGGGGHQEAELSPDGIATGGGKGKRKFPEEAAEGGGGAGLVGGRGRFVERPLPASKEDLVCTPQQYRASGSYFGLEENGRLFAPPSPETGEAKRSAFVEVKKAARAASLQEEGTADGAGVASEDQDAGGGGGSSTPAAASPVGAEKLLAPRPGGPLPSRLEGGSPARGSAFTSVPQLGSAGSTSGGGGTGAGAAGGAGGGQGAASDERKSAFSQPARSFSQLSPLVLGQKLGALEPCHPADGVGPTRLYPAAADPLAVKLQGAADLNGGCGSLPSGGGGLPKQSPFLYATAFWPKSSAAAAAAAAAAAAGPLQLQLPSALTLLPPSFTSLCLPAQNWCAKCNASFRMTSDLVYHMRSHHKKEYAMEPLVKRRREEKLKCPICNESFRERHHLSRHMTSHN | -0.8362
8 | PRKRA (protein, UniProt O75569 1-313, looked up) Interferon-inducible …: MSQSRHRAEAPPLEREDSGTFSLGKMITAKPGKTPIQVLHEYGMKTKNIPVYECERSDVQIHVPTFTFRVTVGDITCTGEGTSKKLAKHRAAEAAINILKANASICFAVPDPLMPDPSKQPKNQLNPIGSLQELAIHHGWRLPEYTLSQEGGPAHKREYTTICRLESFMETGKGASKKQAKRNAAEKFLAKFSNISPENHISLTNVVGHSLGCTWHSLRNSPGEKINLLKRSLLSIPNTDYIQLLSEIAKEQGFNITYLDIDELSANGQYQCLAELSTSPITVCHGSGISCGNAQSDAAHNALQYLKIIAERK | 0.8928
9 | PROX1 (protein, UniProt P48437 1-737, looked up) Prospero homeobox protein 1: MPDHDSTALLSRQTKRRRVDIGVKRTVGTASAFFAKARATFFSAMNPQGSEQDVEYSVVQHADGEKSNVLRKLLKRANSYEDAMMPFPGATIISQLLKNNMNKNGGTEPSFQASGLSSTGSEVHQEDICSNSSRDSPPECLSPFGRPTMSQFDVDRLCDEHLRAKRARVENIIRGMSHSPSVALRGNENEREMAPQSVSPRESYRENKRKQKLPQQQQQSFQQLVSARKEQKREERRQLKQQLEDMQKQLRQLQEKFYQVYDSTDSENDEDGDLSEDSMRSEILDARAQDSVGRSDNEMCELDPGQFIDRARALIREQEMAENKPKREGSNKERDHGPNSLQPEGKHLAETLKQELNTAMSQVVDTVVKVFSAKPSRQVPQVFPPLQIPQARFAVNGENHNFHTANQRLQCFGDVIIPNPLDTFGSVQMPSSTDQTEALPLVVRKNSSEQSASGPATGGHHQPLHQSPLSATAGFTTPSFRHPFPLPLMAYPFQSPLGAPSGSFSGKDRASPESLDLTRDTTSLRTKMSSHHLSHHPCSPAHPPSTAEGLSLSLIKSECGDLQDMSDISPYSGSAMQEGLSPNHLKKAKLMFFYTRYPSSNMLKTYFSDVKFNRCITSQLIKWFSNFREFYYIQMEKYARQAINDGVTSTEELSITRDCELYRALNMHYNKANDFEVPERFLEVAQITLREFFNAIIAGKDVDPSWKKAIYKVICKLDSEVPEIFKSPNCLQELLHE | 0.7937
